According to the DeepSol protein solubility set:

Test: soluble on expression in E. coli; label from the status in PepcDB or PDB records

Sequence	soluble on expression in E. coli
MEYYFTAQKLAVGYDNRPLIENIDFSLKRGEILTLIGPNGAGKSTILKSIARQLSLVSGTIYLDKSDVVTMNGNEFAKKMAVVLTDKLKTELMTCYDVVATGRYPYTGRFGVLSDEDKKAVDEAMELVNVSQIKDKDFTKISDGQRQRVMLSRAICQQPEIIVLDEPTSYLDIKYKLEFLSILQRLKRQKNLTVIMSLHELDMAKRVSDHILCIDGRYVDRYGTPEEVFTDQYVSGLFGITAGSLEHHHHHH	not soluble
GPGSMGQSIGDRLQNLVLRDEERARLLSLQNTKSILPSLAPSRRLLLVHAIMTLVVPYVTRKVQRKVLEEGWEREPVPTARYRIAKALRYAVVTWSLLSLANTFNFLMTGRYRTLVERILSLRLVYGSQRMMRFTNLLYMNQHVQWQTWMSLFSALSLGR	not soluble
MSQSYHRPRPAGMAGAILDKQASKFNDVEAGYLLEWIRDLTKEDFDCEASRDNFREQLKDGQRLCKLVNAIKAGSVKKIMKPISNFNCLENINQFSTAARSLGVKDEETFQSVDLFDGRDLFSVTVTLQSLARKVEKLGITPPKQVSKDQIVNQ	not soluble
MTTNAIDGSLWLTNAVQPERKTGNQILGKDDFLKILLAQLENQDPLNPMEDKDFIAQMASFSSLEQMMNIANLMQQWMQASSRDALLRYSEWIGKTVHWQDGETMMSAVVQSVMQKDGQVTLGLDNGTTIAADAVVKVEQKG	not soluble
MQFSKMHGLGNDFVVVDGVTQNVFFTPETIRRLANRHCGIGFDQLLIVEAPYDPELDFHYRIFNADGSEVSQCGNGARCFARFVTLKGLTNKKDISVSTQKGNMVLTVKDDNQIRVNMGEPIWEPAKIPFTANKFEKNYILRTDIQTVLCGAVSMGNPHCVVQVDDIQTANVEQLGPLLESHERFPERVNAGFMQIINKEHIKLRVYERGAGETQASGSGACAAVAVGIMQGLLNNNVQVDLPGGSLMIEWNGVGHPLYMTGEATHIYDGFITL	soluble
MNPGGILMTTDIYFSHNNPHDPYAHHTTELNRDTHHLWVVLTTDSDDFDADSFTTEVIRITGYSRHEVNNGLNAMAAMTNLPHLRAIQERYYFLSIRYLASIMIAVAKADPTLWEELDLRITDALTPVTAGEVMIQSSTLSKRIAAWIKELDPEPTPEPIPKEDYVHVHTTDEATYVRIKISGPNRLILNDIITQLKDTDTEDSLPEALMAFLMEKIQLKITKYLFTPHKHPEQVWSPDYGDIGPEAYANATLVCAKDLDEVAGATEKSYTPSEKMKALIRARDGHCRFPGCCVPASKCQVDHIIPWAEGGPTAAWNLQLLCQRHHNMKTDGRFTADANGLAEIRWIGPMDVPAVTRPTGPLVKAMPRGIWGQVLRDRIQARFERIRVRALNKEDLEHHHHHH	not soluble
MGSDKIHHHHHHVLKKALRQHFRQSCTEQDLHRWFDPLDITLADEKRLEVRFPHRFFAEWFSTQVQGRFESELNTFMGEGTTVEYTTGCCPVLSSSPLPPAAVSKKLSAPFGREYTFETFISNKRNFFPVASARELARQEEEIRYNPFVLCGPAGSGKTHLLRAIANELSKTVYKKHIFISTIDDLGTLFSNNGSGDPAQVRQQLSACHYLLLDDLHRLREQPQLQDELTVLFNSFYDRQKQMVFTCPGKLSELDFLETGLRSRLEWGLIVTMKPPDLEILVTFIQRQCKLHKLQLAKEHVFTLAQRFRDFRHLQGVLNRLTAYRDLVNRTLADTDFEQVLSHTEAGAGRPLTADRIIALCAGRFSLPPKDVTGDKRHQKVVLARQVAMYLCRELMGSSYPVLGRTFGGKDHSTAMYAVKKIKKMIDSDKTTRQLVTELKKQCLSGAE	not soluble
MTNEADKFVVDVIYALPTQQKVISVSVLPGTSAIDIVRQSNMVSFFPEIELETVKLGVFSNVVKHDQVILPGQRVEIYRPLIADPKDVRRRRADKAKDEGRANKVTGGRVS	soluble
MTKPVSISKKPRKQHTPEFRNEALKLAERIGVAAAARELSLYESQLYAWRSKQQQQMSSSERESELAAENVRLKRQLAEQAEELSILQKAATYFAKRLK	not soluble
MDKYHSMKELQNETIENEDWEIITEDRDSNVTILAIHGGGIEPATTELARVIANDGQFNYFAFNGMRTKGNNELHVTSINYDNDIAMDLVKTSESAITIHGCLGEDEIAYIGGKDNLLKERIVEELSQIGIEVKEAPSHMSGTQDNNIVNCTKNGVGVQIELTSSLRKSLFKNNKFNRKSRMDESNWDDKMYDFGQAINSAINLEHHHHHH	soluble
MSDIPAGDYEKGKKVYKQRCLQCHVVDSTATKTGPTLHGVIGRTSGTVSGFDYSAANKNKGVVWTRETLFEYLLNPKKYIPGTKMVFAGLKKADERADLIKYIEVESAKSL	not soluble
MRVYGRKILEEALRNNVPIKKVFFQKMKNPGSYFLSLVKEVEKRGIKYSFESEERLKNLSGTKKHQGVVFDIGEYRYSSVEEILEAKTPPLIVLLDQIQDPHNLGAIVRTSVGAGANGIIIPKDKSVKVTETVVKVSAGTVFRARIAVVTNLARTIEELKEKGVWTYASDIDGTPIYEEDFTFPTAFVFGNEGEGIRRLVREKCDRVVTIPMENDIDSLNVSVSVGVVLFEAVRQRRMKGAG	soluble
MGSDKIHHHHHHWIAFAGNMNTTIDNESDELKAIDYKDLEVKEKLGEGASGEVYRAMYGGSDVALKLFRGAATSDGLPEDEIKVMQRLGPDENSVSILGSVVGAPEGQLAALLPLVPPSFTILGNPPTFDSCTRDTYPKDKTFSLRTAIEILEAIARVCAHLHSRGLSHGDLYAHNILVQIGVDGEPTRTKLSDYGAASFSSVLKPHQVALLERIEVRAFGALAEELMDRLEEADAEGVAHRLSSVIVKSMRADVASRPSFSEIHQEMVAFLKEV	not soluble
MYNLKNIYASITLYPHEINLVVSDNNNQFHVLYENSIANDELYTHAGITNKAKFKVVLNQLINNANDYLGFKLEKVIVVLAELVDDLEINRFKTDVFFTGYDFNHQDMLSSEKNRFLLKNRHINPNEVLDLVALNYRDLTTDKISKNFKYNCSYRANVIYYTTKNSLVKELKPFLKRNIIVKIDKIVTHHMVLAHSIKQINKNNLFVYLGEHTTDLMLFMDNALVDLVSEPFGRVNFLESDNDSENKALLEFLVDSTARIGDSGSIGMAYTDGSTYKEIRAVTIDDLIQSVNEKTKYLIDFINTNTEIFFQKYGFLPSTLLFYTKSKQLLNNFQLNQNLLSNHFKTVTIFKNEVQFVSRKYLLNCQTIALSWRQDQINVNPTSFALPFYSDKIEKQFKKSFLMLKVHTHINKLVQKLIK	soluble
MSLKNEIQFEVFGDYALFTDPLTKIGGEKLSYSVPTYQALKGIVESIYWKPTIIFTIDKLRVMKPIQMESKGVRPIDYGGGNTLAHYTYLKDVHYQVKAHFDFNFNRPDLAFDRNEGKHYSILQRSLKAGGRRDIFLGTRECQGYVAPCEFGSGSGYYDGQGEYRLGTMVHGFNYPDETGQNQLDVRLWPAVMNDGYIKFPKPEDCTMIRPIKEMEPKEFKRDDIQSVEQLSYEVGGEEGHHHHHH	soluble
MGSRTGSREEHSLQFLNLTKMTTTTASNLPWVEKYRPSKLDELVAHEQIVKTLTKFIENRTLPHLLFYGPPGTGKTTTVLAAARQMYSPTKMASMVLELNASDERGIDVVRNTIVNFAQTKGLQAFSTSSNTGTVPFKLVILDEADAMTKDAQNALRRLDKTDYEQNIIIHNVNIYFRVIEKYTDNVRFCIICNYLASIVPAIQSRCTRFRFAPLDQKLIVPRLEYIVETEQLKMTPDGKDALLIVSKGDMRTVINTLQSTAMSFDTVSENTVYQCIGQPTPKEMKEVVKTLLNDPSKKCMNTIQTKLFENGYALQDVITHLHDFVFTLDIPDEAMSAIITGLGEVEENLSTGCSNETQLAAVVAAFFEAKRLCVKEMKNLEIEDMEF	not soluble
MNDPMGETGFSRESAPEIVFSETDMAAAEQLMHLSEEETVSCSSSTGGDCGGGGGDKIKHEYVSSRIGNELNDGVRGNSILGVEKKRKRTVMKEKKFRSLESIYKGTKEIRD	not soluble
MSLSCWKPLSKEEFEAIVSKYKDNPKIEIDYENLKFIPKFNEQIKKYYSNKIKGAKVENLVNEVYEAWFDYIIRIYERPKEKDILMFLPCAAKKPYYKSKTHRTIQRAISGFQIFNRIHRVIVSNPGIIPWEFHTYWPFNSYDWPEWEETEDIKKLYYWVTYKRVKEFLRRHQYNYYTVYMKPDSLTYKAVMDASKELNIKIIPLLDEKTYEKCKGQGNPLVKEPCIESLKNNLKQLQKQIYEGSNSEGHHHHHH	soluble
MGSDKIHHHHHHMAPLLFRQILDLEAEAIQRAAERADAEAFANATQLIANCSGKVVLSGVGKSGIIARKITATLLSIGTLSAFLHPCDALHGDLGIVTEQDVVVMLSNSGETDELLAMLPHLQRRQVPIIAIVGNMRSTLARVAAAVLDASVDREACPLNLAPTASTTVALAIGDALAAQVMDYRSVTSEQFAFNHPAGRLGKRLTLKVVDVMHQGEELPLLPPEARFVEVVTAISRGGLGAVPIVEADGRLLGLITDGDLRRLLEQTSPAKLDQITAAEFMTPQPIAVEGDLLAYDALHLMENRPSQISVLPVVDAAQRCLGLVRIHDLIRSGI	not soluble
SSTFSASDFNSERYSSSRPSYPSDFYKMIDEYHDGERKLLVDVGCGPGTATLQMAQELKPFEQIIGSDLSATMIKTAEVIKEGSPDTYKNVSFKISSSDDFKFLGADSVDKQKIDMITAVECAHWFDFEKFQRSAYANLRKDGTIAIWGYADPIFPDYPEFDDLMIEVPYGKQGLGPYWEQPGRSRLRNMLKDSHLDPELFHDIQVSYFCAEDVRDKVKLHQHTKKPLLIRKQVTLVEFADYVRTWSAYHQWKQDPKNKDKEDVADWFIKESLRRRPELSTNTKIEVVWNTFYKLGKRV	soluble
MIGVASSAVFDLLASDAVFQSQGEEEYRKFQQKNLHVPLPKGIAFPFIKRLLSVNDLSVDPTDPLVEVILLPRNDPDTGLRVLKTIEHYELGMTRAIFMQGKSPYEYIPALNIALFLSGDKKDVEAAIRAGYPAGQVLDSKFEDDETDKTLRIAFDFDGVLAGDESETIMQASGLSEFHSHEVKNVMQPHNPGPLKEFMVRISKIQSVEEKHKKLNPKYENRIRVSIVTARNAPSHERAMNTLKSWGVMANDAFFLGGIEKGKILSVLKPHIFFDDQSGHLKSTSAVAPSVHIPFGITNHVSTVDAIEPEADQVQQVV	not soluble
MSRNPFDDDYRPSAASSTMPVKSYTTMGHYSGEDEADYYEREIEKTLQESLDSTERSRRHLENSEKIGTSTAQQLLEQREKLENTEKNLDEIHRTTQMTQRNLNSLKSFFGGMFKNKFTKKPQEPTETPTVPQSKSASRLSETATNLSSGGGSATFSGPSGQRTLTESSRSAIKGTRWEAMDNQIDENLDMMSANLRNLQRLGADLGKEVDSQNEMLDRIQYKAERNDGIVRDQDKQMQKILGTGASTSQTTAESLTPSMDTSTKMSLMMKATSLWK	not soluble
MNENDGKNSAEKHNNSQDEGSIQPDKTQLDDVADDAEKKSEKSSNCMIWSQNVLKKAKISNMTREFRNNKEYKPNVTTSISEKMMDKNRYRHIFCGDDNRVVLKERDPSNDYIHASWMVMPDGFQFISTQGPIKNTIADFWHMVYTEKCHVIVMLCQYIEEDQEKCQRYFSDTSEKEYGDYRVKVVEKTVELWNPVKVTGIQVQKKNCPTKHMVYHYFYYDWHDQVAPLDPAPMIKMYKAVLNKSSSKPIVVHCSAGVGRTSTFVGIYLSQIMIRENSSVDMVEILKRLRTMRLGAVQSQLQYVYLVVLMIELFIDDKIIKRNANYESLLKKYADVTRKVTAAIMEEEEKRRQRKKREEEKEKEQEKESPATKEEKKKENGLKTNRQRDNREAPSKPPRKNPEELARSKLQGPRKLTLKNRDGNAEEPTAKDNEERSTAEDKSKNRQKSVYVKMPLSSKEKGSKHERAKQGARKNAARKAKKKPSVTGNY	not soluble
